Data taken from patent US20130149329A1 (BOARD OF REGENTS FOR OKLAHOMA STATE UNIVERSITY, published 2013).

Target: T1, His-tag IpaB (Shigella flexneri 2457T IpaB with N-terminal His-tag, expressed from pET15b) (Shigella flexneri 2457T, UniProt P18011 1-580)
T1 construct: not shown: N-terminal His-tag from vector pET15b
T1 sequence: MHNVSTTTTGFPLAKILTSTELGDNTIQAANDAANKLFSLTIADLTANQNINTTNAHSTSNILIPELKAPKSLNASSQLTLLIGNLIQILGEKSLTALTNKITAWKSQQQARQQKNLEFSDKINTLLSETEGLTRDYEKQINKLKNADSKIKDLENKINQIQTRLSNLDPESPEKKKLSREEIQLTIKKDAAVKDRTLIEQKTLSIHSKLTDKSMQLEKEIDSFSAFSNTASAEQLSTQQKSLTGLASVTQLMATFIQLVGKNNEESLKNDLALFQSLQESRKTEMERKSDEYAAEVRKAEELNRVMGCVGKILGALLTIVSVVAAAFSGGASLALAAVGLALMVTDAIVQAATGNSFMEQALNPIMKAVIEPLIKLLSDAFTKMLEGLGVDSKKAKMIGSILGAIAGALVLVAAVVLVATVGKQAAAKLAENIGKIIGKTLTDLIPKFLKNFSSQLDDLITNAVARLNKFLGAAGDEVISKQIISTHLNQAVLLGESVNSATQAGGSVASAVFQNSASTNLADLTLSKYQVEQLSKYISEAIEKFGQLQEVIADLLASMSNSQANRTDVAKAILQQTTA
Experiment: co-expression and co-purification

B1: IpgC (cognate chaperone of IpaB, untagged, expressed from pACYCDuet-1) (other)
chain: MSLNITENESISTAVIDAINSGATLKDINAIPDDMMDDIYSYAYDFYNKGRIEEAEVFFRFLCIYDFYNVDYIMGLAAIYQIKEQFQQAADLYAVAFALGKNDYTPVFHTGQCQLRLKAPLKAKECFELVIQHSNDEKLKIKAQSYLDAIQDIKE
binding result: binds
